Reference: US20160244499A1

Target: C-terminally biotinylated γc ectodomain (human) (UniProt P31785)
Test: site 2 affinity of free super-4 for γc; method not stated

Kd: 0.3 µM
B1: super-4 (IL-4 RGA), free, not bound to IL-4Rα (ligand)
chain: HKCDITLQEIIKTLNSLTEQKTLCTELTVTDIFAASKNTTEKETFCRAATVLRQFYSHHEKDTRCLGATAQQFHRHKQLIRFLKRLDRNLWGLAGLNSCPVKEANQSTLENFLERLRVIMQSKWFKCGAHHHHHH
